From US20150191542A1 (INNATE PHARMA S A, published 2015)
Where two headings read alike, the source gives them in different places. Each block holds one binder with its values, some of them ahead of it.

Experiments:
[1] = molecular target: T1, MICA*001 expressed on transfected cells (human); assay: flow cytometry, MFI against antibody concentration on C1R-MICA*01 cells
T1 construct: the cells carry the complete allele; also called C1R-MICA*001; C1R-MICA*01
T1 chain: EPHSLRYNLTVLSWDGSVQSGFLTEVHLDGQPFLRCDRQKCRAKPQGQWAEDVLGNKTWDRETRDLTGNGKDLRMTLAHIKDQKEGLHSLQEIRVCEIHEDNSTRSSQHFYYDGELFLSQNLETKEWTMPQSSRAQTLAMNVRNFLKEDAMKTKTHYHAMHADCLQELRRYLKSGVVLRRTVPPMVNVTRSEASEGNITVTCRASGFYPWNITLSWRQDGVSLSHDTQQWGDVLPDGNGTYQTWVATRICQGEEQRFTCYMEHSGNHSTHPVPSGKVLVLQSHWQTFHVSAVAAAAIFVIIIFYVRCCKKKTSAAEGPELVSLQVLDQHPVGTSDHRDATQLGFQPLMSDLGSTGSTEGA
Protocol: (§1) The binding of antibodies obtained from the first and second immunization series (including 9C10, 20C6 and 16A8) were tested for binding to MICA-expressing CR1 transfectant cells C1R-MICA*001, C1R-MICA*004, C1R-MICA*007 and C1R-MICA*008 (Pr. A. Steinle, Eberhard-Karls University Tuebingen, Germany) described in Salih et al. (2003) Blood 102(4): […]. Binding was analyzed by flow cytometry.
(§2) Cells were harvested and stained in PBS 1×/BSA 0,2%/EDTA 2 mM buffer during 30 minutes at 4° C. using a dose-range of the anti-MICA mAbs. After two washes in staining buffer, cells were stained for 30 min at 4° C. with goat anti-mouse (H+L)-PE polyclonal antibodies (1/200). After two washes, stainings were acquired on a BD FACS Canto II and analyzed using the FlowJo software.

[2] = molecular target: T2, MICA*007 expressed on C1R transfectant cells (human, UniProt Q29983 24-297, Glycosylated on cells; the letters do not carry this.); assay: flow cytometry, MFI against antibody concentration on C1R-MICA*07 cells
T2 construct: also called C1R-MICA*007; C1R-MICA*07
T2 chain: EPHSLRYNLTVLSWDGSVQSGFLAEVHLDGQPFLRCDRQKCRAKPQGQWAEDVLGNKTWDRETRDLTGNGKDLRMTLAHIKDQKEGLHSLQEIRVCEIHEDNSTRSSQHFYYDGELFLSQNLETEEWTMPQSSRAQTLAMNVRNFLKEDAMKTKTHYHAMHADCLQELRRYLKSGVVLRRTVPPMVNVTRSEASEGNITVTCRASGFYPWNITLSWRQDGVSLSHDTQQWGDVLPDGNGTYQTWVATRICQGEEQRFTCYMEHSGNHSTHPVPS

[3] = molecular target: T3, MICA*004 expressed on C1R transfectant cells (human, UniProt Q29983 24-297, Glycosylated on cells; the letters do not carry this.); assay: flow cytometry, MFI against antibody concentration on C1R-MICA*04 cells
T3 construct: also called C1R-MICA*004; C1R-MICA*04
T3 chain: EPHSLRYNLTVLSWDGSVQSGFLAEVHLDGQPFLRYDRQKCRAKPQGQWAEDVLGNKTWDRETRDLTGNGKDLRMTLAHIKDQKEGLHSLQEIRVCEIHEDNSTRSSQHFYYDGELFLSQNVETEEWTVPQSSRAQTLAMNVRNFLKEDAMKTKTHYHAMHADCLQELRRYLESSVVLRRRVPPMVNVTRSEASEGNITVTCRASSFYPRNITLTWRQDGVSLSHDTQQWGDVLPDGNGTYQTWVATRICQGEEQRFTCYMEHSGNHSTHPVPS

[4] = molecular target: T4, MICA*008 expressed on C1R transfectant cells (human, UniProt Q29983 24-297, Glycosylated on cells; the letters do not carry this.); assay: flow cytometry, MFI against antibody concentration on C1R-MICA*08 cells
T4 construct: also called C1R-MICA*008; C1R-MICA*08
T4 chain: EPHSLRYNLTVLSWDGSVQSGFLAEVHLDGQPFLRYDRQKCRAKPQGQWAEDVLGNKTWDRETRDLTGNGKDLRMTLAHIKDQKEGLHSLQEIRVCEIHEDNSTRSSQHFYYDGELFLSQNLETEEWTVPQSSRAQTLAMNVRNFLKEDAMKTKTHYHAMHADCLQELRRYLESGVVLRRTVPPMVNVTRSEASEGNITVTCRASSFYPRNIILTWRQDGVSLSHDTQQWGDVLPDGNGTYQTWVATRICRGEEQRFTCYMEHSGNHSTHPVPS

[5] = molecular target: T3, MICA*004 expressed on C1R transfectant …; assay: flow cytometry, MFI against antibody concentration on C1R-MICA*04 cells
Protocol: as §1, §2

[6] = molecular target: T2, MICA*007 expressed on C1R transfectant …; assay: flow cytometry, MFI against antibody concentration on C1R-MICA*07 cells
Protocol: as §1, §2

[7] = molecular target: T4, MICA*008 expressed on C1R transfectant …; assay: flow cytometry, MFI against antibody concentration on C1R-MICA*08 cells
Protocol: as §1, §2

[8] = molecular target: T4, MICA*008 expressed on C1R transfectant …; assay: flow cytometry on C1R-MICA*008 cells, 3-parameter logistic fit
Protocol: as §1, §2
(§3) Antibodies 9C10, 20C6 and 16A8 bound to each of the C1R-MICA*001, C1R-MICA*004, C1R-MICA*007 and C1R-MICA*008 cells (see FIGS. 3A, 3B and 3C for antibodies 9C10, 20C6 and 16A8 respectively). […] EC50 values are shown in Table C in μg/ml (calculated using a 3-parameter logistic fit).

[9] = molecular target: T1, MICA*001 expressed on transfected cells; assay: flow cytometry on C1R-MICA*001 cells, 3-parameter logistic fit
Protocol: as §1, §2, §3

[10] = molecular target: T3, MICA*004 expressed on C1R transfectant …; assay: flow cytometry on C1R-MICA*004 cells, 3-parameter logistic fit
Protocol: as §1, §2, §3

[11] = molecular target: T2, MICA*007 expressed on C1R transfectant …; assay: flow cytometry on C1R-MICA*007 cells, 3-parameter logistic fit
Protocol: as §1, §2, §3

[12] = molecular target: T5, recombinant human MICA extracellular domain recombinant-Fc protein (MICA*019 allele) (human, UniProt Q29983 24-297); assay: SPR Biacore T100 (FIG. 1)
T5 construct: Bought from R&D Systems; also called MICA*019-Fc; MICA-Fc; not shown: Fc part of the bought fusion protein (R&D Systems)
T5 chain: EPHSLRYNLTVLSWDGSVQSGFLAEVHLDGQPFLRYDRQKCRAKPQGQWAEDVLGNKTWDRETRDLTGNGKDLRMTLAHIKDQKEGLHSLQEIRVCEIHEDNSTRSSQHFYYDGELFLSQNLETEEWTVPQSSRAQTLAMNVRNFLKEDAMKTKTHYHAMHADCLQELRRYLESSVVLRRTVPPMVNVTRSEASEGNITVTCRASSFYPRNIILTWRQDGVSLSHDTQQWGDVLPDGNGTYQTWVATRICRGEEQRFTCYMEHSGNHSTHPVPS
Protocol: The binding of 9C10, 20C6 and 16A8 to either recombinant human MICA extracellular domain recombinant protein monomers or dimers (MICA*019 allele-Fc protein or MICA*001-His protein) as well as other NKG2D ligands MICB and ULBP1-2 was analyzed by Surface Plasmon Resonance (SPR) using a Biacore T100 apparatus to obtain monovalent and bivalent affinity, respectively. Biotinylated anti-MICA antibodies were injected at a constant rate of 10 μl/min over the Sensor Chip CAP flow-cells comprising Biotin CAPture Reagent. MICA-Fc or MICA-His protein, MICB-Fc, ULBP1-Fc or ULBP2-Fc protein is then injected successively (range of concentrations between 0.01-100 nM), with regeneration between injections, and in increasing order over two flowcells simultaneously. Curves are fitted using Biacore T100 Evaluation software.
(a) General Biacore T100 methods. SPR measurements were performed on a Biacore T100 apparatus (Biacore GE Healthcare) at 25° C. In all Biacore experiments HBS-EP+ buffer (Biacore GE Healthcare) or 10 mM sodium acetate pH 7.4, 150 mM NaCl, 0.05% P20 served as running buffer and sensorgrams were analyzed with Biaevaluation 4.1 and Biacore T100 Evaluation software. Recombinant human and mouse TLR3 were purchased from R&D Systems.

B1: CHG1-M-MIA-12A10 (antibody, V domains shown)
VH: QVQLQQSGADLVRPGASVRLSCRASGYSFTNYWMNWVKQRPGQGLEWIGMIHPSDSETRLNQKFKDKATLTVDKSSNTAYMQLSSPTSEDSAIYYCARDDFFTMDYWGQGTSVTVSS
VL: DILLTQSPAILSVSPGERVSFSCRASQNIVTSIHWYQQSTNGSPRLLIKYASESISGIPSRFSGSGSGTDFTLTINSVESEDVADYYCQQSNIWPLTFGAGTKLELK
EC50 (read off the curve) [1]: ~1 µg/mL

B3: antibody 20C6 (antibody, V domains shown)
VH: QITLKESGPGILKPSQTLSLTCSFSGFSLSTSGMGVGWIRQPSGKGLEWLAHIWWDDDKYYNPSLKSQLTISKDTSRNQVFLRITSVDTADTATYYCARRTQGYFDYWGQGTTLTVSS
VL: DIVMTQSPATLSVTPGDRVSLSCRASQSISDYLHWYQQKSHESPRLLIKYASQSISGIPSRFSGSGSGSDFTLSINSVEPEDVGVYYCQNGHSFPWTFGGGTKLEIK
notes: Murine hybridoma antibody of IgG1 isotype as tested
EC50 (read off the curve) [5]: ~0.07 µg/mL | EC50 (read off the curve) [6]: ~0.5 µg/mL | EC50 (read off the curve) [7]: ~0.2 µg/mL | EC50 [8]: 0.17 µg/mL | EC50 [9]: 0.3 µg/mL | EC50 [10]: 0.08 µg/mL | EC50 [11]: 1.58 µg/mL | binding result [12]: binds | EC50 (read off the curve) [1]: ~0.3 µg/mL

B5: CHG1-M-MIA-18E8 (antibody, V domains shown)
VH: DVQLQESGPDLVNPSQSLSLICTVTGYSITSDYSWHWIRQFPGNKLEWMGNIHYSGRINYNPSLRSRISITRDTSKNQFFLQLISVTTEDTATYYCATRRTFGNFEDYWGQGTTLTVSS
VL: QIVLSQSPATLSVSPGEKVTMTCRSSSSVNYMHWYQQKPGSSPKPWIYATSTLASGVPARFSGSGSGTSYSLTISRVEAEDAATYYCQQWSSNPLTFGAGTKLELK
EC50 (read off the curve) [1]: ~0.5 µg/mL

The remaining lines, values ahead:

binding result [2]: binds | EC50 (read off the curve) [3]: ~0.5 µg/mL | EC50 (read off the curve) [4]: ~0.8 µg/mL
B2: CHG1-M-MIA-15F9 (antibody, V domains shown)
VH: DVQLQESGPDLVKPSQSLSLTCTVTGYSITSGYSWHWIRQFPGNKLEWMGFIHYSGSTDYNPSLKSRISLTRDTSKNQFFLQLNSVSTEDTATYYCAKDYGHWYFDVWGAGTTVTVSS
VL: SIVMTQTPKFLLVSAGDRVTITCKASQSVSYDVAWYQQKPGQSPKLLIFYASNRYTGVPARFTGSGYGTDFTFTISTVQAEDLAVYFCQQDYSSLTFGAGTKLELK

EC50 (read off the curve) [1]: ~0.5 µg/mL
B4: CHG1-M-MIA-10F3 (antibody, V domains shown)
VH: QVQLQQSAAELARPGASVKMSCKASGYTFTSYTMHWVKQRPGQGLEWIGYINPSSGYTEYNQKFKDKTTLTVDKSSTTSYMQLSSLTSDNSAVYYCARGGDWDVDWFVYWGQGTLVTVSA
VL: QIVLTQSPAIMSASPGEKVTITCSASSSISYMHWFQQKPGTSPKLWIYSTSKLASGVPARFSGSGSGTSHSLTISRMEAEDAATYYCQHRSTYPFTFGSGTKLEIK
